In article PMC8185552:

Biological target: murine tenascin-C (murine) (UniProt Q80YX1)
Assay: negative staining transmission electron microscopy; murine TNC with CXCL12 labeled with colloidal gold; gold particles counted along the length of the TNC monomer, 500 TNC molecules

## murine tenascin-C, Q80YX1 23-2110
  stoichiometry N: 6
